# According to publication PMC9262625, “Structural and dynamic studies of DNA recognition by NF-κB p50 RHR homodimer using methyl NMR spectroscopy”:
# B1: Ig-κB (dsDNA)
# DNA 1: GCTGGGACTTTCCAGC
# DNA 2: GCTGGAAAGTCCCAGC
# B2: IFN-κB (dsDNA)
# DNA 1: GCTGGGAAATTCCAGC
# DNA 2: GCTGGAATTTCCCAGC
# B3: MHC H2 M2 (dsDNA)
# DNA 1: GCTGGGGATTTCCCAGC
# DNA 2: GCTGGGAAATCCCCAGC
# B4: MHC H2 M1 (dsDNA)
# DNA 1: GCTGGGAATTTCCCAGC
# DNA 2: GCTGGGAAATTCCCAGC
# B5: κB proto (dsDNA)
# DNA 1: GCTGGGAATTCCCAGC
# DNA 2: GCTGGGAATTCCCAGC
# B6: H2-κB (dsDNA)
# DNA 1: GCTGGGAATCCCCAGC
# DNA 2: GCTGGGGATTCCCAGC
# B7: 4xG-10 (4G-10) (dsDNA)
# DNA 1: GCTGGGGATCCCCAGC
# DNA 2: GCTGGGGATCCCCAGC
# B8: MHC H2 (dsDNA)
# DNA 1: GCTGGGGATTCCCCAGC
# DNA 2: GCTGGGGAATCCCCAGC
# Columns and labels:
# Settings in all cases: protein: recombinant; tags: U-[2H,15N] or ILV methyl labeled; no tag stated; chain copies: 2
# [1] = biological target: T1, p50 RHR homodimer (mouse (murine), UniProt P25799 39-363); experiment: NMR (13C methyl HMQC); 1:1; heterogeneous bound conformations; NMR: 20 mM Tris pH 6.8, 150 mM NaCl, 2 mM DTT, 300 K; native gel: 20 mM Tris pH 8.0, 10% glycerol, room temperature, 20 min
# [2] = biological target: T1, p50 RHR homodimer; experiment: EMSA (native gel); 20 uM, 1:1; single band; NMR: 20 mM Tris pH 6.8, 150 mM NaCl, 2 mM DTT, 300 K; native gel: 20 mM Tris pH 8.0, 10% glycerol, room temperature, 20 min
# [3] = biological target: T1, p50 RHR homodimer; experiment: NMR (13C methyl HMQC); 1:1; single bound conformation, shifts differ from MHC H2; NMR: 20 mM Tris pH 6.8, 150 mM NaCl, 2 mM DTT, 300 K; native gel: 20 mM Tris pH 8.0, 10% glycerol, room temperature, 20 min
# [4] = biological target: T1, p50 RHR homodimer; experiment: NMR (13C methyl HMQC); 1:1; split peaks, at least two bound conformers; NMR: 20 mM Tris pH 6.8, 150 mM NaCl, 2 mM DTT, 300 K; native gel: 20 mM Tris pH 8.0, 10% glycerol, room temperature, 20 min
# [5] = biological target: T1, p50 RHR homodimer; experiment: NMR (13C methyl HMQC); 1:1; two conformations; NMR: 20 mM Tris pH 6.8, 150 mM NaCl, 2 mM DTT, 300 K; native gel: 20 mM Tris pH 8.0, 10% glycerol, room temperature, 20 min
# [6] = biological target: T1, p50 RHR homodimer; experiment: NMR (13C methyl HMQC, CPMG); 1:1; single bound conformation; NMR: 20 mM Tris pH 6.8, 150 mM NaCl, 2 mM DTT, 300 K; native gel: 20 mM Tris pH 8.0, 10% glycerol, room temperature, 20 min
# T1 sequence (P25799 39-363): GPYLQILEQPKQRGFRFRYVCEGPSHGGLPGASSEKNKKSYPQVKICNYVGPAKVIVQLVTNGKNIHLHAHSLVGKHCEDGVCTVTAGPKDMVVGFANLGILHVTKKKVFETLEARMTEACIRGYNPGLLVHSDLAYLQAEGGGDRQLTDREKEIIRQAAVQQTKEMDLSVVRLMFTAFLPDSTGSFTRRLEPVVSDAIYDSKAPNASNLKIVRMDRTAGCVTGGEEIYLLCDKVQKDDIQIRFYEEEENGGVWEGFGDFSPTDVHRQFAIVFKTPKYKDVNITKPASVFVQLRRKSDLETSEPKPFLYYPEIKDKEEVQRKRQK
binder,measurement,setting,value
B1,binding result,[1],binds
B2,binding result,[1],binds
B3,binding result,[2],binds
B4,binding result,[3],binds
B5,binding result,[4],binds
B6,binding result,[1],binds
B7,binding result,[5],binds
B8,binding result,[6],binds
